Assay results: patent publication US20030077679

T1: human EID-1 with an N-terminal V5-HIS6 tag (in p423CDN)
T1 chain: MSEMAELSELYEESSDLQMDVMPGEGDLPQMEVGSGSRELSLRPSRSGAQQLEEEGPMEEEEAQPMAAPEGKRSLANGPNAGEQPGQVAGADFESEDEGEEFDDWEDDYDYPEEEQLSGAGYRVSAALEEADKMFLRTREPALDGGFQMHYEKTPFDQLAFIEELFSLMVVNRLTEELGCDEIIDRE

T2: human EID-1 (SEQ ID NO:4) expressed in E. coli as an N-terminal HIS6 fusion
T2 chain: T1 chain

B1: human DYRK2 (SEQ ID NO:6) with an N-terminal HIS6-tag (protein)
chain: MNDHLHVGSHAHGQIQVQQLFEDNSNKRTVLTTQPNGLTTVGKTGLPVVPERQLDSIHRRQGSSTSLKSMEGMGKVKATPMTPEQAMKQYMQKLTAFEHHEIFSYPEIYFLGLNAKKRQGMTGGPNNGGYDDDQGSYVQVPHDHVAYRYEVLKVIGKGSFGQVVKAYDHKVHQHVALKMVRNEKRFHRQAAEEIRILEHLRKQDKDNTMNVIHMLENFTFRNHICMTFELLSMNLYELIKKNKFQGFSLPLVRKFAHSILQCLDALHKNRIIHCDLKPENILLKQQGRSGIKVIDFGSSCYEHQRVYTYIQSRFYRAPEVILGARYGMPIDMWSLGCILAELLTGYPLLPGEDEGDQLACMIELLGMPSQKLLDASKRAKNFVSSKGYPRYCTVTTLSDGSVVLNGGRSRRGKLRGPPESREWGNALKGCDDPLFLDFLKQCLEWDPAVRMTPGQALRHPWLRRRLPKPPTGEKTSVKRITESTGAITSISKLPPPSSSASKLRTNLAQMTDANGNIQQRTVLPKLVS
B2: human DYRK3 catalytic domain (amino acids 142-526 of SEQ ID NO:2) with an N-terminal GST-tag and C-terminal HIS6-tag (protein)
chain: PEQALKQYKHHLTAYEKLEIINYPEIYFVGPNAKKRHGVIGGPNNGGYDDADGAYIHVPRDHLAYRYEVLKIIGKGSFGQVARVYDHKLRQYVALKMVRNEKRFHRQAAEEIRILEHLKKQDKTGSMNVIHMLESFTFRNHVCMAFELLSIDLYELIKKNKFQGFSVQLVRKFAQSILQSLDALHKNKIIHCDLKPENILLKHHGRSSTKVIDFGSSCFEYQKLYTYIQSRFYRAPEIILGSRYSTPIDIWSFGCILAELLTGQPLFPGEDEGDQLACMMELLGMPPPKLLEQSKRAKYFINSKGIPRYCSVTTQADGRVVLVGGRSRRGKKRGPPGSKDWGTALKGCDDYLFIEFLKRCLHWDPSARLTPAQALRHPWISKSVP
B3: recombinant hDYRK3 (SEQ ID NO: 2) as used in Example 4 (protein)
chain: MGGTARGPGRKDAGPPGAGLPPQQRRLGDGVDTFMMIDETKCPPCSNVLCNPSEPPPPRRLNMTTEQFTGDHTQHFLDGGEMKVEQLFQEFGNRKSNTIQSDGISDSEKCSPTVSQGKSSDCLNTVKSNSSSKAPKVVPLTPEQALKQYKHHLTAYEKLEIINYPEIYFVGPNAKKRHGVIGGPNNGGYDDADGAYIHVPRDHLAYRYEVLKIIGKGSFGQVARVYDHKLRQYVALKMVRNEKRFHRQAAEEIRILEHLKKQDKTGSMNVIHMLESFTFRNHVCMAFELLSIDLYELIKKNKFQGFSVQLVRKFAQSILQSLDALHKNKIIHCDLKPENILLKHHGRSSTKVIDFGSSCFEYQKLYTYIQSRFYRAPEIILGSRYSTPIDIWSFGCILAELLTGQPLFPGEDEGDQLACMMELLGMPPPKLLEQSKRAKYFINSKGIPRYCSVTTQADGRVVLVGGRSRRGKKRGPPGSKDWGTALKGCDDYLFIEFLKRCLHWDPSARLTPAQALRHPWISKSVPRPLTTIDKVSGKRVVNPASAFQGLGSKLPPVVGIANKLKANLMSETNGSIPLCSVLPKLIS

Key:
[1] = target: T1, human EID-1 with an N-terminal V5-HIS6 …
[2] = target: T2, human EID-1 (SEQ ID NO:4) expressed in …

Protein | in vitro kinase assay with gamma-33P-ATP, radioactive band on Phosphorimager [1] | in vitro kinase assay with 33P-ATP, then LC-ES MS/MS of the Asp-N digest [2]
B1 | There is a radioactive band that migrates at the same position as the EID-1 protein in the western blot while this band is absent in the vector alone lane | 
B2 | There is a radioactive band that migrates at the same position as the EID-1 protein in the western blot while this band is absent in the vector alone lane | 
B3 |  | there was a radioactive band that migrated at the same position as the EID-1 protein following electrophoresis
